T1: human FGFR1c-Fc (human, UniProt P11362 22-376)
T1 construct: also called huFGFR1c-Fc; huFGFR1c/Fc
T1 sequence: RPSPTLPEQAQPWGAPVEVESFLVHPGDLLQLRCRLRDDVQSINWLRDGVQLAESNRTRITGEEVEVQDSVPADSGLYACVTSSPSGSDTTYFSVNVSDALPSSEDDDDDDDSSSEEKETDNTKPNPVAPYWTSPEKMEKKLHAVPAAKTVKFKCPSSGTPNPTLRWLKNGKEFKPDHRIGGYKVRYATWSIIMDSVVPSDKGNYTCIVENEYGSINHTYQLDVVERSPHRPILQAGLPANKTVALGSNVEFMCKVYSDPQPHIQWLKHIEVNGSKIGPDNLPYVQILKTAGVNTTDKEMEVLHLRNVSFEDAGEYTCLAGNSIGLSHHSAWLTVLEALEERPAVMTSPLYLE

T2: recombinant human β-Klotho (human, UniProt Q86Z14 53-996, limits assumed, biotinylated in the AlphaScreen assays (site not stated))
T2 construct: also called rhβ-klotho; huβKlotho-His
T2 sequence: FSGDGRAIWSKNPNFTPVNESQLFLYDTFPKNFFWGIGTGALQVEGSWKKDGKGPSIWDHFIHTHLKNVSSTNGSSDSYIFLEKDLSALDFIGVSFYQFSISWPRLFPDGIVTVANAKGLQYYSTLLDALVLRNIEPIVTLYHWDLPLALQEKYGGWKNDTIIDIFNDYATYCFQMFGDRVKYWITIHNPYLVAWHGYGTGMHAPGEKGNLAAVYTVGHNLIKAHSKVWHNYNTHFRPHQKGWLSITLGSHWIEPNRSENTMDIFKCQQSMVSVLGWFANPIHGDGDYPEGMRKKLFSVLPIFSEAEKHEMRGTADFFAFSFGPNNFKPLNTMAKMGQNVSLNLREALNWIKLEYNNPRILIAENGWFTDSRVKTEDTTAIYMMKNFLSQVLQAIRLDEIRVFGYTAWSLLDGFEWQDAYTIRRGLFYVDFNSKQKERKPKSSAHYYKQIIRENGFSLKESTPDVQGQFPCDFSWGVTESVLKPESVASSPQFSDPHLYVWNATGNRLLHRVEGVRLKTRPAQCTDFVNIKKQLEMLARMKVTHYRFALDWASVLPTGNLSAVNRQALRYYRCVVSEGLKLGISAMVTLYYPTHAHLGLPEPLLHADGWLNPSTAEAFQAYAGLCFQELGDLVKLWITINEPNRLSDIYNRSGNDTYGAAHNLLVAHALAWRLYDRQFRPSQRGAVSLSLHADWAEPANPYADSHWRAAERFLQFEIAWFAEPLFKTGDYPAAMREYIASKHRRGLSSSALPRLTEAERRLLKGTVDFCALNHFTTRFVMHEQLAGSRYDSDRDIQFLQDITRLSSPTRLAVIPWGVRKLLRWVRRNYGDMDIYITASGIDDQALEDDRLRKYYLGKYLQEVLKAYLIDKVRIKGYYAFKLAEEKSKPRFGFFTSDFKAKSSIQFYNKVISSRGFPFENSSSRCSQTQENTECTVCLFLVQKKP

B1: FGFR1c-binding monomer M26 (designed binder)
chain: CGSSQFTCHNTNICLPRARVCDGVDDCEDNSDEAGCGDSHILPFSTPGPST
B2: FGFR1c-binding monomer M12 (designed binder)
chain: CGAGQFTCRSTNICLPLQWVCDGVDDCEDNSDEAGCGDSHILPFSTPGPST

These binders were tested against T1, human FGFR1c-Fc (assay: phage panning).

Q: Does B1 bind?
A: binds

Q: Does CGPNQFTCRSTNICLSQTWVCDGVDDCEDGSDETNCGRPGPGATSAPAA (designed binder) [FGFR1c-binding monomer M20] bind?
A: binds

Q: Does CGAGQFTCRDTNICISRAWRCDGVDDCEDNSDEADCSQDPEFHKV (designed binder, also called R1cM08) [FGFR1c-binding monomer M08] bind?
A: binds

Q: Does CRLNEFPCGSGSCISLHWVCDSVPDCRDDSDETDCPERT (designed binder) [FGFR1c-binding monomer M33] bind?
A: binds

Q: Does CLSDQFTCRSTNICLPLQWVCDGDDDCEDNSDEEDCSAPASEPPGSL (designed binder, also called R1cM31) [FGFR1c-binding monomer M31] bind?
A: binds

Q: Does CGSSQFTCHNTNICLPRAWVCDGVDDCEDNSDEKNCSAPASEPPGSL (designed binder) [FGFR1c-binding monomer M29] bind?
A: binds

Q: Does B2 bind?
A: binds

Biological target: T1, human FGFR1c-Fc
Assay: phage panning
Remark: another data set of the same source

Q: Does CGANLFTCQSTNICISDAWVCDGVDDCEDNSDETTCSQDPEFHKV (designed binder, also called M23mutM10) [FGFR1c-binding monomer M23mut10] bind?
A: binds

Q: Does CGTNMFTCQRTNICISDAWVCDGVDDCEDYSDETACSQDPEFHKV (designed binder) [FGFR1c-binding monomer M23mut18] bind?
A: binds

Q: Does CGSNLFTCRSTNICISPAWVCDGVDDCDDDSDETGCSQDPEFHKV (designed binder, also called M23mutM16) [FGFR1c-binding monomer M23mut16] bind?
A: binds

Q: Does CGANLFTCRSTNICISPAWVCDGVDDCEDYSDEIGCSQDPEFHKV (designed binder, also called M23mutM11) [FGFR1c-binding monomer M23mut11] bind?
A: binds

Q: Does CGANLFTCRSTNICISPTWVCDGVDDCDDNSDEIGCSQDLEFHKV (designed binder) [FGFR1c-binding monomer M23mut12] bind?
A: binds

Q: Does CGPNLFTCRSTNICISRAWVCDGVDDCDDESDEQGCSQDPEFHKV (designed binder) [FGFR1c-binding monomer M23mut13] bind?
A: binds

Q: Does CGSNLFTCRRTNICISKAWVCDGVDDCEDNSDETGCSQDPEFHKV (designed binder, also called M23mutM15) [FGFR1c-binding monomer M23mut15] bind?
A: binds

Q: Does CGSDMFTCRSTNICISKVWVCDGVDDCEDDSDERGCSQDPEFHKV (designed binder, also called M23mutM14) [FGFR1c-binding monomer M23mut14] bind?
A: binds

The binders below were run against T2, recombinant human β-Klotho (assay: phage panning).

Q: Does CRSSEFPCHGYSTCISLSLLCDGVDDCADNSDEESCRAAGHT (designed binder) [β-Klotho-binding monomer M34] bind?
A: binds

Q: Does CSRAHFHCLSGECIHHHWRCDGGPDCKDKSDEENCPTKRPEEV (designed binder) [β-Klotho-binding monomer M41] bind?
A: binds

Q: Does CSAFEFHCLSGECIHSSWRCDMDWDCKDQPDQLWCALET (designed binder) [β-Klotho-binding monomer M37] bind?
A: binds

Q: Does CSAFEFHCLSGECIHSSWRCDWDLDCKDHPDEVMCALEA (designed binder) [β-Klotho-binding monomer M39] bind?
A: binds

Q: Does CVPNQFQCGSGRCLPHPLGCDGVDDCLDGSDEASCAPPT (designed binder) [β-Klotho-binding monomer M26] bind?
A: binds

Q: Does CVSDEFPCRDNNICVLLHLLCDGVDDCLDSSDETGCAKPT (designed binder) [β-Klotho-binding monomer M27] bind?
A: binds

Biological target: T2, recombinant human β-Klotho
Assay: phage panning
Remark: another data set of the same source

Q: Does CIAAKLCEALDGDGVCHKECDLEECDWDGGDCQRIFLTDPT (designed binder) [β-Klotho-binding monomer LNR_M01] bind?
A: binds

Q: Does CMAYNLCTALVGDGECDQECDTPTCNWDGGDCAVKSAPDST (designed binder) [β-Klotho-binding monomer LNR_M05] bind?
A: binds

Q: Does CMAYNLCQALVGDGSCNSECDTETCGWDGMDCATVEGAEAT (designed binder) [β-Klotho-binding monomer LNR_M11] bind?
A: binds

Q: Does CMAYLLCKKYYGDGICRSECDTATCSWDGFDCPVNEIEDLT (designed binder) [β-Klotho-binding monomer LNR_M09] bind?
A: binds

Q: Does CIAAKLCERLDGDGSCQSECGNATCGWDGMDCDEKENDELT (designed binder) [β-Klotho-binding monomer LNR_M08] bind?
A: binds

Q: Does CREYISCPNFYGDGRCQQDCNLAKCVWDGLDCADVWSEDLT (designed binder) [β-Klotho-binding monomer LNR_M04] bind?
A: binds

Q: Does CMEAKSCQARDGDGDCGQGCNLAECIWDGMDCRPEWIRELT (designed binder) [β-Klotho-binding monomer LNR_M06] bind?
A: binds

Q: Does CREYSMCTRFDGDGICHEQCGYPRCLWDGLDCANNFDHEVT (designed binder) [β-Klotho-binding monomer LNR_M12] bind?
A: binds

Q: Does CLYQDCKEYYGDGNCSKGCNLAECLWDGGDCGTIFLADVT (designed binder) [β-Klotho-binding monomer LNR_M07] bind?
A: binds

Q: Does CNPLYDPHCRSYFGDGDCGPGCDLAACLWDGGDCPGVAAAELT (designed binder) [β-Klotho-binding monomer LNR_M13] bind?
A: binds

Q: Does CNPLYDDHCAAFFGDGGCGPECSLAECLWDGGDCEEERDADVT (designed binder) [β-Klotho-binding monomer LNR_M15] bind?
A: binds

Q: Does CNPVYDPYCAAFFGDGGCGPHCGLAECVWDGMDCDHKEVRELT (designed binder) [β-Klotho-binding monomer LNR_M19] bind?
A: binds

Q: Does CNPKYDAHCASYFGDGECDPACSLAECVWDGDDCDPNFLTDVT (designed binder) [β-Klotho-binding monomer LNR_M16] bind?
A: binds

Q: Does CNPPIGQYCTQLFGDGDCGPDCDLAECVWDGDDCDPVAVPDVT (designed binder) [β-Klotho-binding monomer LNR_M18] bind?
A: binds

Q: Does CNPPIGQYCTQLFGDGDCGPECNLAECVWDGDDCDPVAVPELT (designed binder) [β-Klotho-binding monomer LNR_M20] bind?
A: binds

Q: Does CPPHIEDHCERRDGDGVCQKPCDFYGCLWDGVNCDMDLVQELT (designed binder) [β-Klotho-binding monomer LNR_M02] bind?
A: binds

Q: Does CPPHIEDHCERRDGDGVCQKPCDFYGCLWDGVDCDMDLVEELT (designed binder) [β-Klotho-binding monomer LNR_M10] bind?
A: binds

Q: Does CPAHYGTHCEERDGDGKCHQGCDFATCDWDGMDCGMDLVRELT (designed binder) [β-Klotho-binding monomer LNR_M17] bind?
A: binds

Q: Does CNPIIQHYCETYDGDGLCESACNFYGCAWDGFDCQVISDKDST (designed binder) [β-Klotho-binding monomer LNR_M03] bind?
A: binds

Q: Does CHPLIREYCEKFFGDGGCDSGCNNSRCDWDGDDCGLIQHGDVT (designed binder) [β-Klotho-binding monomer LNR_M14] bind?
A: binds

Q: Does CHPLIREYCTHYDGDGECDKGCDSAKCKWDGDDCDMDVLAEVT (designed binder) [β-Klotho-binding monomer LNR_M21] bind?
A: binds

Reference: patent US20130197191A1 (Amgen, published 2013)
